Data on 5 molecules can be found in patent US20220153844A1 (INVENRA, published 2022).

Test [1] addresses T1, CTLA4 (antigen of Examples 10 and 13) (UniProt P16410 36-161, limits assumed).
T1 construct: Immobilised antigen in the Octet assay
As to the kind of experiment: BLI (Octet); antigen immobilised, B-Body as analyte. The text has this: In each instance, the antigen is immobilized and the B-Body is the analyte.
In general terms: BLI is a label-free optical method that tracks binding on a fibre tip over time.

Test [2] has as its target T2, huCTLA4 (biotinylated human CTLA4 for BLI) (human, UniProt P16410 36-161, limits assumed, biotinylated).
T2 construct: also called Target 2
As to the kind of experiment: BLI steady state analysis; biotinylated antigen on streptavidin sensor, bispecific 2 µM to 31.25 nM.

Test [3] deals with T3, mouse CTLA4 (target of muSNIPER and anti-muCTLA4) (mouse, UniProt P09793 36-161, limits assumed, biotinylated in the blocking assay).
T3 construct: also called Target 2
T3 sequence (P09793 36-161 limits assumed): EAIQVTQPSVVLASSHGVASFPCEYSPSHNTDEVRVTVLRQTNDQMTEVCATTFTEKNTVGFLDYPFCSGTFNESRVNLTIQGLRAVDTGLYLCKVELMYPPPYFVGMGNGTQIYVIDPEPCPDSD
Briefly: BLI, biotinylated mouse CTLA4 (B-mTarget2) on streptavidin sensor, then antibody or CD86 ligand.

The target of test [4] is T4, mouse CD25 + CTLA4 together (Table 29) (mouse, UniProt P01590 22-236; P09793 36-161, limits assumed).
T4 construct: the format is not described
T4 sequence (P09793 36-161 limits assumed, one chain of several): as the sequence (P09793 36-161 limits assumed) above
As to the kind of experiment: bivalent affinity to both CD25 and CTLA4, summary in Table 29; bivalent, CD25 + CTLA4 together.

In test [5] the target is T5, mouse CD25 (target of muSNIPER in Table 29) (mouse, UniProt P01590 22-236, limits assumed).
T5 construct: also called muCD25
T5 sequence (looked up): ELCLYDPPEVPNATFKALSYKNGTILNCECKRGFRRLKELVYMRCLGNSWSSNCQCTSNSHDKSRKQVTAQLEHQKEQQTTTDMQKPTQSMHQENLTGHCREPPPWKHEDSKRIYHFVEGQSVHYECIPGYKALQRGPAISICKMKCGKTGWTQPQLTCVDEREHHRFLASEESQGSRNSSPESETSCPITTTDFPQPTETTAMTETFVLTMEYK
As to the kind of experiment: monovalent affinity, summary in Table 29 (text: biolayer interferometry; data not shown); monovalent, CD25 alone.

Test [6] has as its target T3, mouse CTLA4 (target of muSNIPER and …). As to the kind of experiment: monovalent affinity, summary in Table 29 (text: biolayer interferometry; data not shown); monovalent, CTLA4 alone.
The target in test [7] is T6, muCD25 transiently expressed on Expi293 cells (Expi293-muCD25) (mouse, UniProt P01590 22-268).
T6 construct: whole, on cells; also called murine CD25; single positive CD25+ cells
T6 sequence (looked up): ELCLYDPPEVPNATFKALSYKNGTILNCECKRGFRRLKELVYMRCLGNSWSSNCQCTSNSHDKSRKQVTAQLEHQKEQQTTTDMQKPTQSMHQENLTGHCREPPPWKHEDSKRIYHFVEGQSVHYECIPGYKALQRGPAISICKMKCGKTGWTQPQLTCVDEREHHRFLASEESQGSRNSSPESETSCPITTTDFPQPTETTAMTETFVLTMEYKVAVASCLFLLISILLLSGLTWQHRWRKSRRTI
As to the kind of experiment: flow cytometry, biotinylated mouse IL-2 on Expi293 muCD25 cells, streptavidin-PE.

T1 sequence (P16410 36-161 limits assumed): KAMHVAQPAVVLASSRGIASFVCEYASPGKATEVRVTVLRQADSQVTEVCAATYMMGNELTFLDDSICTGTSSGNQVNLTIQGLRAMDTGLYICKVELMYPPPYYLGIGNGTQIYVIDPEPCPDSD
T2 sequence (P16410 36-161 limits assumed): as above

B1: bivalent bispecific B-Body “BC1” (bispecific antibody)
chain 1: not shown
chain 2: EVQLVESGGGLVQPGGSLRLSCAASGFTFSDYDIHWVRQAPGKGLEWVGDITPYDGTTNYADSVKGRFTISADTSKNTAYLQMNSLRAEDTAVYYCARLVGEIATGFDYWGQGTLVTVSSASPREPQVYTDPPSRDELTKNQVSLTCLVKGFYPSDIAVEWESNGQPENNYKTTPPVLDSDGSFFLYSKLTVDKSRWQQGNVFSCSVMHEALHNHYTQKSLSLSGEC
chain 3: not shown
chain 4: QVQLVESGGGVVQPGRSLRLDCKASGITFSNSGMHWVRQAPGKGLEWVAVIWYDGSKRYYADSVKGRFTISRDNSKNTLFLQMNSLRAEDTAVYYCATNDDYWGQGTLVTVSSASTKGPSVFPLAPSSKSTSGGTAALGCLVKDYFPEPVTVSWNSGALTSGVHTFPAVLQSSGLYSLSSVVTVPSSSLGTQTYICNVNHKPSNTKVDKKVEPPKSC
notes: A:F site specific for Antigen A, H:L site (nivolumab) specific for human PD1
On to B1, for which the binding result in test [1] is given as “no binding”.

B2: BC1 1×1 B-Body huSNIPER 19×8 binding molecule (bispecific antibody)
chain 1: not shown
chain 2: EVQLVESGGGLVQPGGSLRLSCAASGFTFSGYWIHWVRQAPGKGLEWVAAITSRDSYTYYADSVKGRFTISADTSKNTAYLQMNSLRAEDTAVYYCARGSYLGSAFDYWGQGTLVTVSSASPREPQVYTDPPSRDELTKNQVSLTCLVKGFYPSDIAVEWESNGQPENNYKTTPPVLDSDGSFFLYSKLTVDKSRWQQGNVFSCSVMHEALHNHYTQKSLSLSGEC
chain 3: SDIQMTQSPSSLSASVGDRVTITCRASQSVSSAVAWYQQKPGKAPKLLIYSASSLYSGVPSRFSGSRSGTDFTLTISSLQPEDFATYYCQQYSSQPATFGQGTKVEIKRTVAAPSVFIFPPSDEQLKSGTASVVCLLNNFYPREAKVQWKVDNALQSGNSQESVTEQDSKDSTYSLSSTLTLSKADYEKHKVYACEVTHQGLSSPVTKSFNRGECDKTHTCPPCPAPELLGGPSVFLFPPKPKDTLMISRTPEVTCVVVDVSHEDPEVKFNWYVDGVEVHNAKTKPREEQYNSTYRVVSVLTVLHQDWLNGKEYKCKVSNKALPAPIEKTISKAKGQPREPQVCTLPPSREEMTKNQVSLSCAVKGFYPSDIAVEWESNGQPENNYKTTPPVLDSDGSFFLVSKLTVDKSRWQQGNVFSCSVMHEALHNHYTQKSLSLSPGK
chain 4: EVQLVESGGGLVQPGGSLRLSCAASGFTFSSYYIHWVRQAPGKGLEWVAKIQPKGGYTYYADSVKGRFTISADTSKNTAYLQMNSLRAEDTAVYYCARSYYYRPHAFDYWGQGTLVTVSSASTKGPSVFPLAPSSKSTSGGTAALGCLVKDYFPEPVTVSWNSGALTSGVHTFPAVLQSSGLYSLSSVVTVPSSSLGTQTYICNVNHKPSNTKVDKKVEPPKSC
Take B2: the Kd in test [2] amounted to 19 nM.

B3: anti-muCTLA4, parental bivalent monospecific monoclonal antibody (antibody, IgG1, V domains shown)
VH: EVQLVESGGGLVQPGGSLRLSCAASGFTFSSYYIHWVRQAPGKGLEWVASISSYADYTDYADSVKGRFTISADTSKNTAYLQMNSLRAEDTAVYYCARQSYYGLDYWGQGTLVTVSS
VL: DIQMTQSPSSLSASVGDRVTITCRASQSVSSAVAWYQQKPGKAPKLLIYSASSLYSGVPSRFSGSRSGTDFTLTISSLQPEDFATYYCQQLSRGPSTFGQGTKVEIK
notes: Parent antibodies of the discovery campaign are in a human full-length IgG1 format; copies: 2 + 2
Regarding B3, the binding result in test [3] is on record as “binds”.

B4: Mouse Surrogate SNIPER antibody (muSNIPER) (bispecific antibody)
chain 1: not shown
chain 2: EVQLVESGGGLVQPGGSLRLSCAASGFTFSSYYIHWVRQAPGKGLEWVASISSYADYTDYADSVKGRFTISADTSKNTAYLQMNSLRAEDTAVYYCARQSYYGLDYWGQGTLVTVSSASPREPQVYTDPPSRDELTKNQVSLTCLVKGFYPSDIAVEWESNGQPENNYKTTPPVLDSDGSFFLYSKLTVDKSRWQQGNVFSCSVMHEALHNHYTQKSLSLSGEC
chain 3: DIQMTQSPSSLSASVGDRVTITCRASQSVSSAVAWYQQKPGKAPKLLIYSASSLYSGVPSRFSGSRSGTDFTLTISSLQPEDFATYYCQQWYTSPLTFGQGTKVEIKRTVAAPSVFIFPPSDEQLKSGTASVVCLLNNFYPREAKVQWKVDNALQSGNSQESVTEQDSKDSTYSLSSTLTLSKADYEKHKVYACEVTHQGLSSPVTKSFNRGECDKTHTCPPCPAPELLGGPSVFLFPPKPKDTLMISRTPEVTCVVVDVSHEDPEVKFNWYVDGVEVHNAKTKPREEQYNSTYRVVSVLTVLHQDWLNGKEYKCKVSNKALPAPIEKTISKAKGQPREPQVCTLPPSREEMTKNQVSLSCAVKGFYPSDIAVEWESNGQPENNYKTTPPVLDSDGSFFLVSKLTVDKSRWQQGNVFSCSVMHEALHNHYTQKSLSLSPGK
chain 4: EVQLVESGGGLVQPGGSLRLSCAASGFTFRQYFIHWVRQAPGKGLEWVAAIHPDSDFTYYADSVKGRFTISADTSKNTAYLQMNSLRAEDTAVYYCARGGVAIESGYALDYWGQGTLVTVSSASTKGPSVFPLAPSSKSTSGGTAALGCLVKDYFPEPVTVSWNSGALTSGVHTFPAVLQSSGLYSLSSVVTVPSSSLGTQTYICNVNHKPSNTKVDKKVEPPKSC
notes: Chains 1 and 2 form the CTLA4 arm, chains 3 and 4 the CD25 arm; BC1 scaffold; also called mSNIPER; muSINPER
On to B4, for which the Kd in test [4] was less than 5 nM; in test [5], more than 300 nM; in test [6] it was more than 100 nM.

B5: biotinylated mouse recombinant IL-2 ligand (ligand, UniProt P04351 21-169, looked up)
chain: APTSSSTSSSTAEAQQQQQQQQQQQQHLEQLLMDLQELLSRMENYRNLKLPRMLTFKFYLPKQATELKDLQCLEDELGPLRHVLDLTQSKSFQLEDAENFISNIRVTVVKLKGSDNTFECQFDDESATVVDFLRRWIAFCQSIISTSPQ
modifications: biotinylated
Consider B5, for which the binding result in test [7] was “binds”.
